Sequences and labels used below:
B2: ferritin purified from horse spleen (mixture of FTH1 and FTL subunits) (other)
chain 1: TTAFPSQVRQNYHQDSEAAINRQINLELHASYVYLSMSFYFDRDDVALKNFAKYFLHQSHEEREHAEKLMKLQNQRGGRIFLQDIKKPDQDDWENGLKAMECALHLEKNVNESLLELHKLATDKNDPHLCDFLETHYLNEQVKAIKELGDHVTNLRRMGAPESGMAEYLFDKHTLGECDES
chain 2: SSQIRQNYSTEVEAAVNRLVNLYLRASYTYLSLGFYFDRDDVALEGVCHFFRELAEEKREGAERLLKMQNQRGGRALFQDLQKPSQDEWGTTLDAMKAAIVLEKSLNQALLDLHALGSAQADPHLCDFLESHFLDEEVKLIKKMGDHLTNIQRLVGSQAGLGEYLFERLTLKHD
notes: Bought from Sigma (A3641 in the MYC assays, F4503 in the GST pull-downs); detected with anti-FTH1 antibody; also called Apoferritin; apo-ferritin purified from equine spleen

In test [1] the target is B2. Description: anti-MYC immunoprecipitation of in vitro translated MYC-NCOA4 with horse spleen ferritin, FTH1 immunoblot. (A western blot detects proteins with antibodies after separation by electrophoresis.)
Method: (§1) An anti-MYC antibody immunoprecipitation was performed followed by immunoblotting with the indicated antibodies.
(§2) To probe the interaction between ferritin and NCOA4, initial binding assays using MYC-tagged NCOA4 full-length and truncation constructs produced using an in vitro translation (“IVT”) system were conducted. […] Apoferritin (Sigma, A3641-100 mg) was added in a pull-down assay using anti-c-Myc Agarose Affinity Gel antibody produced in rabbit (Sigma, A7470-1 ML). Affinity purification reactions were washed thoroughly with 150 mM NaCl, 20 mM Tris (pH 7.4), and 2 mM dithiothreitol.
Test [2] deals with T1, C-terminal MYC-NCOA4 (aa 235-614) (human, UniProt Q13772 235-614).
T1 construct: In vitro translated; also called C-terminal NCOA4; NCOA4 C-terminal fragment; not shown: N-terminal MYC tag (vector pT7CFE1-NMyc)
T1 sequence: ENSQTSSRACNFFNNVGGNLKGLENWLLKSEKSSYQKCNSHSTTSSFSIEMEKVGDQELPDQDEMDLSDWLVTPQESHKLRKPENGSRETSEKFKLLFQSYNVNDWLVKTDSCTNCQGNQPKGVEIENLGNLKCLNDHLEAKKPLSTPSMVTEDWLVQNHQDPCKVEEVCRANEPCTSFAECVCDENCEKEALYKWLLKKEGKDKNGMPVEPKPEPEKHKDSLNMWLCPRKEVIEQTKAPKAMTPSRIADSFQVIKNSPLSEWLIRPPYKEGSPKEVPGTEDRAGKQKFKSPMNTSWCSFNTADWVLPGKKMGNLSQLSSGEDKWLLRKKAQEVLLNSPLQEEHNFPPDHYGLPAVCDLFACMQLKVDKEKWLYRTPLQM
As to the kind of experiment: anti-MYC immunoprecipitation of in vitro translated MYC-NCOA4 with horse spleen ferritin, immunoblot.

For another test, the target named is T2, MYC-NCOA4 full-length (human, UniProt Q13772 1-614).
T2 construct: not shown: N-terminal MYC tag (vector pT7CFE1-NMyc)
T2 sequence: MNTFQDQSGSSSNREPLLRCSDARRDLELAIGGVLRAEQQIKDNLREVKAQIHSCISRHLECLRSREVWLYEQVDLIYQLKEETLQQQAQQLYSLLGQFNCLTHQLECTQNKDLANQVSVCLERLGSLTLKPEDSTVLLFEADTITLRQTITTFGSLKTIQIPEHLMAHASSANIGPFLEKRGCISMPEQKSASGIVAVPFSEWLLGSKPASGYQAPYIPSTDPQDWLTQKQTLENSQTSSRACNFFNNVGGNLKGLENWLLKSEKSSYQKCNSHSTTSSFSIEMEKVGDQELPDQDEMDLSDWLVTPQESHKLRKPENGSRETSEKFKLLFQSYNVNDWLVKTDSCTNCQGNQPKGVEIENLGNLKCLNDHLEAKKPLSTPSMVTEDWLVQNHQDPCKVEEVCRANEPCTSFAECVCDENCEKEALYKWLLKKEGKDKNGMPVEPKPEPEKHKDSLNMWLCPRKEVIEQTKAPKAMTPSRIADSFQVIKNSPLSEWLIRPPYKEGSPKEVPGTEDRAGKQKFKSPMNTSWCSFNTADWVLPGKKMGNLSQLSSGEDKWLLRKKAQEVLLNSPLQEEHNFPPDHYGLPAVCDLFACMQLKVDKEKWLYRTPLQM
The test is described as above.

Test [3] concerns the target B2. As to the kind of experiment: anti-MYC immunoprecipitation of in vitro translated MYC-NCOA4B with horse spleen ferritin, FTH1 immunoblot.
Method: as §1, §2

Results on three molecules are retold here after patent US20170182119A1 (Dana-Farber, published 2017).

Method for MYC-NCOA4 full-length: as §1, §2

B1: N-terminal MYC-NCOA4 (aa 1-245) (other)
chain: MNTFQDQSGSSSNREPLLRCSDARRDLELAIGGVLRAEQQIKDNLREVKAQIHSCISRHLECLRSREVWLYEQVDLIYQLKEETLQQQAQQLYSLLGQFNCLTHQLECTQNKDLANQVSVCLERLGSLTLKPEDSTVLLFEADTITLRQTITTFGSLKTIQIPEHLMAHASSANIGPFLEKRGCISMPEQKSASGIVAVPFSEWLLGSKPASGYQAPYIPSTDPQDWLTQKQTLENSQTSSRACN
notes: In vitro translated; also called N-terminal NCOA4; NCOA4 N-terminal fragment; not shown: N-terminal MYC tag (vector pT7CFE1-NMyc)
In the case of B1, the binding result in test [1] is given as “no binding”. In the case of B2, the binding result (in test [2]; with MYC-NCOA4 full-length) was “binds” each time.

B3: MYC-tagged NCOA4B (transcript variant, amino acids 1-238 and 555-614 of full-length NCOA4) (other)
chain: MNTFQDQSGSSSNREPLLRCSDARRDLELAIGGVLRAEQQIKDNLREVKAQIHSCISRHLECLRSREVWLYEQVDLIYQLKEETLQQQAQQLYSLLGQFNCLTHQLECTQNKDLANQVSVCLERLGSLTLKPEDSTVLLFEADTITLRQTITTFGSLKTIQIPEHLMAHASSANIGPFLEKRGCISMPEQKSASGIVAVPFSEWLLGSKPASGYQAPYIPSTDPQDWLTQKQTLENSQGEDKWLLRKKAQEVLLNSPLQEEHNFPPDHYGLPAVCDLFACMQLKVDKEKWLYRTPLQM
notes: in vitro translated; also called NCOAB; not shown: N-terminal MYC tag (vector pT7CFE1-NMyc)
Regarding B3, the binding result in test [3] is recorded as “no binding”.
